Data on 5 molecules can be found in publication PMC11886824 (Nucleic Acids Research, 2025).

Series [1] has as its target T1, P12 WT (Enterobacteria phage PRD1, UniProt P17637 1-160).
T1 sequence: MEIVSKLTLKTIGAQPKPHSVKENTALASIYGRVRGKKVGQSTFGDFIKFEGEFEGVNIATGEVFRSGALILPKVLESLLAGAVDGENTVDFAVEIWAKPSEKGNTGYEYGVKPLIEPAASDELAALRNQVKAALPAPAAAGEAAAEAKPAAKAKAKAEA
Kind of series: EMSA.

The series “cryo-EM structure” deals with the molecule itself. Kind of series: cryo-EM structure.
Series [2] has as its target T1, P12 WT. Kind of series: EMSA. The source holds these as a separate data set. For orientation: Mobility shift assays separate free from complexed probe on a gel.
The target in a further series is T2, P12 F44A+K10A (M2) (Enterobacteria phage PRD1, UniProt P17637 1-160, K10A;F44A).
T2 sequence: T1 sequence with K10A, F44A
In words: EMSA.

In a further series the target is T3, P12(1-122) (T3) (Enterobacteria phage PRD1, UniProt P17637 1-122, del123-160).
T3 sequence: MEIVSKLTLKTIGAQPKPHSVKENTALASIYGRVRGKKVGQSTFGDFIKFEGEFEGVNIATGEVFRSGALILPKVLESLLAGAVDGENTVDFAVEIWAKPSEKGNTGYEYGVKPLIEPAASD
In words: EMSA.

Series [3] has as its target T1, P12 WT. Kind of series: EMSA. The source holds these as a separate data set.

Positions count from the first letter of the chain named. Read-outs that look alike come from different tables or passages of the source.

As for GAAAAUAAAAAUAAACUGGACAAUUAAGGAUCCUGUACAAGUCGACGCGG (ssRNA) [ssRNA (non-repetitive)50], in the series with P12 WT [1], the binding result was “no binding”.

B1: P12, single-stranded DNA-binding protein from bacteriophage PRD1 (natural protein, UniProt P17637 1-160, looked up)
chain: T1 sequence
Take B1: the binding result in “cryo-EM structure” is “binds”.

Regarding GATCACAGTGAGTACAATAGAACGACGGCCAGTTGTCTCAATCTAACGGC (ssDNA) [ssDNA (non-repetitive)50], the binding result with P12 WT [1] is on record as “binds”.

B2: ssDNA (non-repetitive)80 (ssDNA)
DNA: AGAGACAACTGGCCGTCGTTCTATTGTACTCACTGTGATCAGAGACAACTGGCCGTCGTTCTATTGTACTCACTGTGATC
Consider B2, for which the Kd with P12 WT [2] was found to be 350 nM. Besides, the binding result in the series with P12 F44A+K10A (M2) and with P12(1-122) (T3) was “no binding” each time.

Take AGAGACAACTGGCCGTCGTTCTATTGTACTCACTGTGATC (ssDNA) [ssDNA (non-repetitive)40]: in the series with P12 WT [3], the binding result was “binds”.

Usually Kd stands for a measure of binding affinity in units of concentration.
